From article PMC2880831 come the findings set out here.

The data set concerns the target EGR1 (UniProt P18146 1-543). Nature of the data set: EMSA. A general note: A gel shift assay detects complexes by their altered migration in electrophoresis.

EGR1, sequence (P18146 whole entry): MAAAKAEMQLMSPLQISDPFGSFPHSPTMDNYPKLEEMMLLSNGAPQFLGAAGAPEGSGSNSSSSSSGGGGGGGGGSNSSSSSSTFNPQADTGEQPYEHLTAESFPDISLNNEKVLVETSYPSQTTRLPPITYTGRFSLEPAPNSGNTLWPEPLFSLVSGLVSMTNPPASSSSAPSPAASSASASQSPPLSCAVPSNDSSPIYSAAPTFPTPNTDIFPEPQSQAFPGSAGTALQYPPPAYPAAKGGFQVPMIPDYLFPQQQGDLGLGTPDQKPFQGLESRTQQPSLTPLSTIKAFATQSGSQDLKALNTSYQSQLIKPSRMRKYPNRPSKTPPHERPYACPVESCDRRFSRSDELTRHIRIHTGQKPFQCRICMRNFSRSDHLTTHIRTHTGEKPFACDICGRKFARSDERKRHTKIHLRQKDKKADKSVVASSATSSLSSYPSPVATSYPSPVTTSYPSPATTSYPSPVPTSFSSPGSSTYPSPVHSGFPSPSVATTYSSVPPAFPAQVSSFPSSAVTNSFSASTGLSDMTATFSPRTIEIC

B1: FAP promoter WT -225~-205 (dsDNA)
DNA 1: CAAGAACGCCCCCAAAATCT
DNA 2: AGATTTTGGGGGCGTTCTTG
As for B1, the binding result is on record as “binds”.
